The supplement of paper PMC7877785
± gives the uncertainty stated by the source.

Assay: self-splicing fitness, log relative to wild type (ln ratio); higher = more splicing; Tetrahymena group I intron in knt gene, E. coli kanamycin selection, DiMSum; sequences stand for … in CUCUCU…GGAGGGAAAAGUUAUCAGGCAUGCACCUGGUAGCUAGUCUUUAAACCAAUAGAUUGCAUCGGUUUAAAAGGCAAGACCGUCAAAUUGCGGGAAAGGGGUCAACAGCCGUUCAGUACCAAGUCUCAGGGGAAACUUUGAGAUGGCCUUGCAAAGGGUAUGGUAAUAAGCUGACGGACAUGGUCCUAACCACGCAGCCAAGUCCUAAGUCAACAGAUCUUCUGUUGAUAUGGAUGCAGUUCACAGACUAAAUGUCGGUCGGGGAAGAUGUAUUCUUCUCAUAAGAUAUAGUCGGACCUCUCCUUAAUGGGAGCUAGCGGAUGAAGUGAUGCAACACUGGAGCCGCUGGGAACUAAUUUGUAUGCGAAAGUAUAUUGAUUAGUUUUGGAGUACUCGUGGUCG
How it was run: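 A randomised library covering all eight P1ex-region intron nucleotides was built with the intron in the knt kanamycin-resistance gene on pET-22b(+) and held in E. coli BL21(DE3). Cells were grown overnight at 37°C or 30°C on LB agar, with or without 25 μg/mL kanamycin, plus 100 μg/mL carbenicillin, 50 μM IPTG and 0.2% rhamnose, and pooled colonies were amplicon-sequenced on an Illumina HiSeq 2500. DiMSum fitness is the error-weighted combination of wild-type-normalised replicate fold changes, kanamycin versus none.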

## UGUGAGCAAUAUUACGUAUA
30 °C
  self-splicing fitness (ln): -3.5 ± 0.4
37 °C
  self-splicing fitness (ln): -2.03 ± 0.21

## UGUGAGCAAUAUUACGUCCG
30 °C
  self-splicing fitness (ln): -0.363 ± 0.12
37 °C
  self-splicing fitness (ln): -0.0626 ± 0.17

## UGUUAGCAAUAUUACGAAUA
30 °C
  self-splicing fitness (ln): -1.32 ± 0.14
37 °C
  self-splicing fitness (ln): -0.0107 ± 0.14

## UGUUAGCAAUAUUACGACCA
30 °C
  self-splicing fitness (ln): 0.586 ± 0.18
37 °C
  self-splicing fitness (ln): -0.351 ± 0.24

## UGUUAGCAAUAUUACGAGAC
30 °C
  self-splicing fitness (ln): -3.17 ± 0.37

## UGUUAGCAAUAUUACGAGAU
37 °C
  self-splicing fitness (ln): -2.58 ± 0.44

## UGUUAGCAAUAUUACGAGCA
30 °C
  self-splicing fitness (ln): -0.725 ± 0.12
37 °C
  self-splicing fitness (ln): -0.136 ± 0.17

## UGUUAGCAAUAUUACGAGGU
30 °C
  self-splicing fitness (ln): -3.93 ± 0.28
37 °C
  self-splicing fitness (ln): -2.8 ± 0.33

## UGUUAGCAAUAUUACGCAAC
30 °C
  self-splicing fitness (ln): -2.82 ± 0.44

## UGUUAGCAAUAUUACGCAGC
37 °C
  self-splicing fitness (ln): -2.47 ± 0.38

## UGUUAGCAAUAUUACGCCCA
30 °C
  self-splicing fitness (ln): 0.342 ± 0.28
37 °C
  self-splicing fitness (ln): -0.34 ± 0.41

## UGUUAGCAAUAUUACGCCUC
37 °C
  self-splicing fitness (ln): -0.642 ± 0.41

## UGUUAGCAAUAUUACGCGAA
30 °C
  self-splicing fitness (ln): -0.983 ± 0.12
37 °C
  self-splicing fitness (ln): -0.191 ± 0.1

## UGUUAGCAAUAUUACGGCAG
30 °C
  self-splicing fitness (ln): 0.45 ± 0.1
37 °C
  self-splicing fitness (ln): -1.03 ± 0.12

## UGUUAGCAAUAUUACGGCUA
30 °C
  self-splicing fitness (ln): -1.01 ± 0.19
37 °C
  self-splicing fitness (ln): 0.14 ± 0.19

## UGUUAGCAAUAUUACGGCUG
30 °C
  self-splicing fitness (ln): 0.0825 ± 0.08
37 °C
  self-splicing fitness (ln): 0.196 ± 0.12

## UGUUAGCAAUAUUACGGGAC
37 °C
  self-splicing fitness (ln): -2.99 ± 0.48

## UGUUAGCAAUAUUACGGUAC
37 °C
  self-splicing fitness (ln): -2.68 ± 0.48

## UGUUAGCAAUAUUACGUCGU
30 °C
  self-splicing fitness (ln): -3.5 ± 0.33
37 °C
  self-splicing fitness (ln): -2.69 ± 0.23

## UGUUAGCAAUAUUACGUUAC
30 °C
  self-splicing fitness (ln): -1.97 ± 0.43

## UUAAAGCAAUAUUACGAAUU
30 °C
  self-splicing fitness (ln): -1.97 ± 0.11
37 °C
  self-splicing fitness (ln): -2.46 ± 0.21

## UUAAAGCAAUAUUACGAGUU
30 °C
  self-splicing fitness (ln): -2.82 ± 0.18
37 °C
  self-splicing fitness (ln): -1.38 ± 0.16

## UUAAAGCAAUAUUACGAUCG
30 °C
  self-splicing fitness (ln): 0.538 ± 0.098
37 °C
  self-splicing fitness (ln): 0.338 ± 0.13

## UUAAAGCAAUAUUACGAUGC
30 °C
  self-splicing fitness (ln): -2.82 ± 0.11
37 °C
  self-splicing fitness (ln): -2.2 ± 0.083

## UUAAAGCAAUAUUACGCAGC
37 °C
  self-splicing fitness (ln): -2.68 ± 0.47

## UUAAAGCAAUAUUACGCGAG
30 °C
  self-splicing fitness (ln): -0.116 ± 0.071
37 °C
  self-splicing fitness (ln): 0.3 ± 0.085

## UUAAAGCAAUAUUACGCGCC
30 °C
  self-splicing fitness (ln): -0.43 ± 0.15
37 °C
  self-splicing fitness (ln): -0.00103 ± 0.24

## UUAAAGCAAUAUUACGCGGC
30 °C
  self-splicing fitness (ln): -2.74 ± 0.29
37 °C
  self-splicing fitness (ln): -1.03 ± 0.2
